The domain aggregation screens of Martell et al. (2025)

Experiment: soluble fraction after stress (log2 fold change); higher = more stays soluble; pooled small domains, quantitative proteomics
Conditions: stress: pH 4
In short: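 High-throughput quantitative proteomics was run on pooled custom libraries of small protein domains following pH 4 stress. Fold changes are on a log2 scale; higher values mean more of a domain remained soluble. The fold change in soluble amount is taken as a measure of aggregation propensity.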

| Sequence | soluble fraction (log2) |
| --- | --- |
| HMAPLVTLEADGNGAVKLSNLAGHSIREVAGALGGAGLSLIPVGSGTSWKQNPAPGTVLHSGDTVTVYF | 0.22 |
| HMNIILFLDELHRLLSDLPPEERNQAIKYYEDYFEDAGPENEQAILKELGSPQELANQIKATT | -1.36 |
| HMEGVNLTVQEAKQMAAIIAPLLKQGQSPYQIVTNHPELGISEKTLYNYIENDVFHEIAGITVMDL | -0.881 |
| HMKKTVTDSVELLTFLKDIFTNTSTNKLRKMLTTGRVTVNNIVIHKAKHILVQNDVVEIGDK | -0.0253 |
| HMKYTVKSPLPGVIMSVLVKVGDTVKASDTVISLEAMKMENAIHAGRDGKVTSIDVNVGDSVLEGHTLVTI | -1.04 |
| HMPNTLAGIERYLGSGMVKGIGPVYASRLVSAFGTAVFDVIEQTPERLREIDGIGEKRTRKITSGWADQ | -0.242 |
| HMKLPIEKESYRIIWDLEEESFRIRLKISENSPQEEKNILINQAIEDIENITGEPIDKSPYYVLYE | -1.04 |
| HMKEVDERPWGKYEVLLDAPDVKVKRITVNPGQRLSYQYHEKRAEVWTVVSGILTIILEDDKLFRG | 0.0694 |
| HMGAGEQMLPKVMFAEGDRVVHKVFGEGTVVTVDRPAQTYDIQFDKLRGTRRIMFRAELEGI | -0.922 |
| HMAHSWEAIRVKLQQIIDEEDKTKPLNDDQIKEKLAEAGIPNLARRTVAKYRKLLNIPTARFRKR | 0.208 |
| HMDAYSYFIRTYPLVDDPLIGDIRRIFAETHDGNPAGDADVRHILWRLLFERELYPTLDEATADWY | -1.86 |
| HMEYSKSIKRLREDKNLTVEELAKRLSLDVEEIQKAEDGEDVDQKTLEAIARYFGVQYDSLVEGTAKSK | -0.258 |
| HMSVAVKAPLQGTVMKVNVKPGDTVTKGAPVAVIEALKMENDVPAPQDGVVASVDVKSGDSVKTDQVLLTL | -0.00426 |
| HMTNVIPKAMAPFNGSTIIADGIKNIKDHIDNLYITVGYKGATLSEHVINKGVSAVFNTTGKGNAWWVYN | 0.00444 |
| HMSILEIFGRNVQKYRKEQRLSQEKLAEYAGLHRTYIGMIERAEKNITLVNIEKIAKALNINLTKLLE | 0.0741 |
| HMSSDKVWSFEASGKQLQASYVAFENETVYLRASEDGSLLQFPLTDFGMKDQLVVLELYELSAKINRSN | -0.779 |
| HMDLAPLQTVDIAINYAKAAELAAILKSSEGGILSDRGGVTVDERTNTLLIRDTLESIDEARKTI | -0.4 |
| HMIERLVEFVHTLRHSGVRVSMAEAMDAAEALRHTPITERQIFKTALQSVLVKEHQDIPAFDAAFERFFL | -0.728 |
| HMGELYGTDQYKDGDAQDTNIGKLLEVNIDGKWQVATTGTSRFEFAGVMDDNGHKLIMISVLPEAKTV | -0.647 |
| HMDDVIDVYATYDVSPTNQISNIKLYSDAAHANPVTGEAGKSYNDITEGHPGYQFRWSGTTWVPI | 0.0332 |
| HMLTQEEITRRRGEILTAAMGVILRKGFLETSMREIAEAAGVGKSTLYDYFPSKDEIMIAYVVD | -0.869 |
| HMSFPDTYFKGNKVIGLSYNDLKKFLNNAGYSKFDEEVEEWGEKRVSIEDDMVDFYLEDDKVVSI | -0.356 |
| HMQIVHKHLQLQPDQGALRAALYSHKAVVAEQVNEQGAINLEIKLAESDFLRLLKSSGLKLQDLVSLS | -1.16 |
| HMNMTDVLVVNQTVRGGTQITESMLSVKKVDKSSLPDNYLKASLKDEVVGKYFDLGLTSGGVLTKDNISVS | 0.104 |
| HMSVGDLLENLIRETRAQFSAPPESLGVAEKRRFVALLSQKGGFLLKGAVSRAASVLGVSEQTVYRYLKDS | 0.0671 |
| HMGTAVKAPMPGTILKVNVTAGQSVKAGDIMFILEAMKMENEIVAPSDGTVSQVVAAKGSSVATDDVLAYL | -0.0993 |

| Sequence | soluble fraction (log2) |
| --- | --- |
| HMFQTAADVAYRIISQKILDGEFPPGMKLSRRKMAEVTSVSVIPVIEALKKLEEDGLVESKPQWGSFVTI | -0.246 |
| HMKPTVKVPNVVNLSLRNAQIQLQNYGLEVGSISYESSRFKNAVLRQSISEGSVVEKGTTINLVISDGL | 0.178 |
| HMNPYQDSILLWKSFDTPLTNEDFMGLSKEELRIARNEIYAAYGRIFTSQDLIDYFNSKPWYQGTTPA | -0.883 |
| HMPPNVLSEREQEVLQLAADGMSNKEMGSELYIAPTTVRDHMQSIMRKLQVNSRTAAAVAGLKLGLLD | -0.422 |
| HMGTNTTGWIKIADDWKYIDSNGEYTVNDWRQSADGGWYYLGYNGNMLKNQTTPDGYYVDAEGLWDGMSPA | -2.31 |
| HMTKEEFLDEIKKELGFMPYEEVIKAEKYFESYFNGSEADEKVIERFGSPKYAAQNYYRTHVAN | 0.0371 |
| HMGAGDKQAQQASLMQIIALQKEGMALGLVEPKHLYHSFSKMIENAGFKDVQSFAVDPSTQQ | -0.199 |
| HMRQTGWVTADSLNVRARPSLQAERVEKVTYGQQVQIMFKQGQWYQIATENGKIGWVSSEYIAAVSP | 0.0725 |
| HMDDTRLLSEIGLSQRVLNALRARGIERVGQVLAMRPDQLLGIRNFGPRALQELRERLQENGYTEGPLFSG | -0.252 |
| HMEDGRLPPPGTVLRREYKGRAVFVRVLPKGFEFEGEVYRSLSAIAAKVTGSHWNGFRFFGLHE | 0.199 |
| HMIGIEALAGEIDRVRQVLTGGGGLSDVQLFSQLKALNEIKAALGASPDPRAPELVQRVDQLLEAAFRS | -1.1 |
| HMQTQVEVLVKYVLEDGTVYKEDKVSADIGAILDSGDLPMLSNDMKFIDDFLFYEVKESDNVIERKVAKLV | -1.41 |
| HMEDQLDSLKDIIYDYLENNELYYNDLQEFKKIIIENMEFIHPNLNHKLIDNNFFKLINFKLEYNF | -0.828 |
| HMLKDGPIGAYADSVIRDIIEKMERFSKEHINVDMLKIHEKIMLIDEPIIRMALLDEFHRVSHDN | -1.2 |
| HMIQTMVVTDLKNGTIFKENGHPFIVLKYEHIKVSRGSAQVRVKMKNLITGQVLEKSWQSTAHVDDT | 0.186 |
| HMEIPTPAELREKRIRMGLKQADVARMAGISQSMVARIESGSVDPRVSTLAKIVEVLQAAER | 0.185 |
| HMRNMVSVLDHIEGIGPKRRQLLYEHYGELEKIKEASVEEMAGLDGMNRPAAEAVYNFFLAQRNL | -0.308 |
| HMVTTLLIINVAGKVKNPGVYQLPPGSRVVDALEAAGQQLKGVDISDINLARVLVDGEQILIGSN | -1.35 |
| HMPKTLTEAAYEDIKQWILEGEITPGSKISLEDTASRLEVSMTPIREALTKLQQEGLVEYIPRAGWRASK | -0.294 |
| HMVENMDEFIGRVRRLVSDRLDLLKEASDDEIRETISQVVLELSREQFLTLNEKKTVLEGVFNSMR | -1.38 |
| HMFGDQMQSYLSRLSQIDVDIIALKYGDNFTYREIGLILEMSEDSVRQRAVRARKKLETMIQKG | -1.29 |
| HMFLPGETFDVKIVKIGEGENQGVGYLDDGTMIVIENGRDHLNELARVIVTRVLQNSAGQMIFSDYEE | -1.76 |
| HMHDRRSGKVKWYSDRKGYGFIDLDGGEVFIHRSALIAFGALRLQAEDIITITVRETDRGLVVDQLFGIER | -1.63 |
| HMTSKVTVLAVNGRITVSGKEQDETVSVYDTGGRLLYQGESDVINVPRKAMYIVTVSRKSYKVIV | 0.00912 |
| HMAPTGTDRQTPHTRDELYLVLSGTGTFVNGDARHPFGPGDALFVPAGAEHRFEDFSDDFRTWVVFYGAEG | -0.734 |
| HMSGGIVRLAVKPWGEVFVDGASRGITPPLKQLTLDAGVHRIEIRNPAGPSWTKDVDVVAGQPTTVSHRF | 0.0131 |

| Sequence | soluble fraction (log2) |
| --- | --- |
| HMNVEKLREMYPEGTKIILQEMQGESRMAKGLKGTVTHVDDAGQIHMKWENGSSLVLNVEVDTFKKIE | -0.562 |
| HMNFIPGEKINLKIVQEGKEKNQGVGYLSDGTMVIVENGSQKLGQDVEVVVIKNIQSSAGKIVFGDISK | 0.227 |
| HMQVTGLTAENAHRVTMIREKGTDHPPVPFHFRKEHHGTGNYVHLYGNPEDRNELHSRDFKDWEAVAFK | 0.319 |
| HMPTMVAQINEIVQAKLPGSGLKDYTIRLVESQRDGVVVWVNGTRYLGVDEVAEPQVQALLKEAVAEWERS | -0.942 |
| HMDIYLDDINRKILHLLSQGVKTKSLRDYIDLSMSAIEKRKKHLKDLFLIEDGKDETLLSEARKKGF | -0.398 |
| HMFQPFFENLRKASIPVSLREYLTFLEGMKKGLVTYDIEAFYFLARAAMVKDERNIDKFDRAFSATFKG | 0.0456 |
| HMYYSERILTILEERGISPYRVSKETGISQSVFSNWKRKPTSRITAANLERLADYLGLPVEVLTG | 0.134 |
| HMQQAVTMQKPGRLLRNADGNGGAVRDLDVGMMLYPTGNRSELMWEVDDELGNRGWVNSTLFGLS | -0.585 |
| HMNKKLEMKIEQLDLSVRLFNSLKRSGIYTVAQIIKLTEEDVMRFRSLGRKSFKELKEKLSEHGLEFE | -1.02 |
| HMIGAKVLVNGQLHRDSYGEGPGQTESNATRLVNYINMKGSHPYHVTTLDGGWRGWVTADSVQV | ≥ 0.43 |
| HMEALSAREIEILQALETGASNRELAKMLFISEATVKTHLVHIYQKLGVGTRTAAITEARERRV | -0.237 |
| HMSDTLPRLLWNFQMAKRLDEMNGAEKRRYQLVLIHPQASEKERDYASSFAHQARMLGIEVAIRDS | -0.139 |
| HMSREQARRFYFDTWAKHRASQPLTDLEKIALTVMLLHPEYHSLLDKPDHYVDKDYSPEAGQTNPFLHM | -0.474 |
| HMSRIDRKGLTSQIVNHLSKNPGKNFTLKQFFRNLKLNTHPLKMLAVDVLNKLLDTNFITRNEDGEFFLKA | -0.123 |
| HMRNERDRQLYAAMEKLKAEYREALYLVYFENMSYRDAAAVMAQTEKQISNLVYRGKQSLKTILEQEGF | -0.867 |
| HMLQPQMKKFLNYESARNKMRPFGLSTRKEWRLFVDEGNRPADIPGDPYKKYKNKGWISWPHFLGK | 0.0515 |
| HMTVVIKVQASQLESWKSSAGTEIKAKLIAVEDEKTYLFVTETGKTIRATAAQLDESSVSRARKLAGL | -0.514 |
| HMGGEEINMINLVGLSQSEAENQLAKLKLKIGQVTAEYSDKPSGTVLKQSISANNKVKKGADIDIVVSKG | 0.207 |
| HMDEFAGSAKPLADGAAPAGYDVKGNKDSMKYHEPGGRWYDATVAEVWFKTAADAEAAGFVKAGA | -0.266 |
| HMRPRGTRLPTGWTPSSDALDWTKAEKPGLDPLQTLEKFRDYWTAQPGQKGVKTDWDATWRNWVRREIP | 0.0989 |
| HMSENEIDELRRRFAREAMALMERKGEEVSRTRLAAELSVARARIDAVFPEESDLLEAVTAEWFA | -0.799 |
| HMQAKDVEIPNFVGKTLAEANADNKDNFNFVVESKYDASKELGVILEQEPAADSKLVKSGSQITLKV | 0.0557 |
| HMSLSIKINHESVGLRLDQFLQEHYYKQQSRSYVQHAIKEGYILVNGQSVKNGYMLKLDDLIELEAI | -0.166 |
| HMDPPISNDARNAINAKLMKFSELHPNEMKKLVEAYKKEFKVSKISPITLARQGEFLSHAISKIDDT | -0.0331 |
